According to the MegaScale stability set (Tsuboyama et al. 2023):

B1: EEHEE_rd4_0003 (parent)
chain: KKVTINGVEIKFNNPEEAVKFALELAKRLNLRIEFHGDQIKIE

Variants of: B1
Assay: folding stability dG (cDNA display proteolysis); higher = more stable
Settings: PBS, room temperature

Compared with KKVTINGVEIKFNNPEEAVKFALELAKRLNLRIEFHGDQIKIN [E43N], KKVTINGVEIKFNNPEEAVKFALELAKRLNLRIEFHGDQIKIS [E43S] is higher in “folding stability dG” value: 2.6 kcal/mol for the first, 2.99 kcal/mol for the second.

Compared with KKVTINGVEIKFNNPEEAVKFALELAKRLNLRIEFHGDQIKII [E43I], KKVTINGVEIKFNNPEEAVKFALELAKRLNLRIEFHGDQIKIP [E43P] is lower in “folding stability dG” value: 3.32 kcal/mol for the first, 1.83 kcal/mol for the second.

Going from KKVTINGVEIKFNNPEEAVKFALELAKRLNLRIEFHGDQIKIW [E43W] to KKVTINGVEIKFNNPEEAVKFALELAKRLNLRIEFHGDQIKIQ [E43Q], the “folding stability dG” value falls from 3.45 kcal/mol to 2.66 kcal/mol.

Compared with KKVTINGVEIKFNNPEEAVKFALELAKRLNLRIEFHGDQIKIC [E43C], KKVTINGVEIKFNNPEEAVKFALELAKRLNLRIEFHGDQIKIG [E43G] is lower in “folding stability dG” value: 3.85 kcal/mol for the first, 2.8 kcal/mol for the second.

Going from KKVTINGVEIKFNNPEEAVKFALELAKRLNLRIEFHGDQIKIK [E43K] to KKVTINGVEIKFNNPEEAVKFALELAKRLNLRIEFHGDQIKIM [E43M], the “folding stability dG” value rises from 2.65 kcal/mol to 3.13 kcal/mol.

Going from KKVTINGVEIKFNNPEEAVKFALELAKRLNLRIEFHGDQIKIT [E43T] to KKVTINGVEIKFNNPEEAVKFALELAKRLNLRIEFHGDQIKIF [E43F], the “folding stability dG” value rises from 3.27 kcal/mol to 3.59 kcal/mol.

Compared with KKVTINGVEIKFNNPEEAVKFALELAKRLNLRIEFHGDQIKID [E43D], KKVTINGVEIKFNNPEEAVKFALELAKRLNLRIEFHGDQIKIV [E43V] is higher in “folding stability dG” value: 2.5 kcal/mol for the first, 3.28 kcal/mol for the second.

Compared with KKVTINGVEIKFNNPEEAVKFALELAKRLNLRIEFHGDQIKIR [E43R], KKVTINGVEIKFNNPEEAVKFALELAKRLNLRIEFHGDQIKIH [E43H] is higher in “folding stability dG” value: 2.64 kcal/mol for the first, 2.82 kcal/mol for the second.

First: KKVTINGVEIKFNNPEEAVKFALELAKRLNLRIEFHGDQIKIY [E43Y]
Second: KKVTINGVEIKFNNPEEAVKFALELAKRLNLRIEFHGDQIKIA [E43A]
The “folding stability dG” value of the first is higher: 3.45 kcal/mol for the first, 2.59 kcal/mol for the second.

Going from KKVTINGVEIKFNNPEEAVKFALELAKRLNLRIEFHGDQIKIL [E43L] to KKVTINGVEIKFNNPEEAVKFALELAKRLNLRIEFHGDQIKNE [I42N], the “folding stability dG” value falls from 3.23 kcal/mol to 1.74 kcal/mol.

Going from KKVTINGVEIKFNNPEEAVKFALELAKRLNLRIEFHGDQIKDE [I42D] to KKVTINGVEIKFNNPEEAVKFALELAKRLNLRIEFHGDQIKEE [I42E], the “folding stability dG” value falls from 1.36 kcal/mol to 1.3 kcal/mol.

Going from KKVTINGVEIKFNNPEEAVKFALELAKRLNLRIEFHGDQIKVE [I42V] to KKVTINGVEIKFNNPEEAVKFALELAKRLNLRIEFHGDQIKYE [I42Y], the “folding stability dG” value falls from 2.31 kcal/mol to 1.6 kcal/mol.

Compared with KKVTINGVEIKFNNPEEAVKFALELAKRLNLRIEFHGDQIKHE [I42H], KKVTINGVEIKFNNPEEAVKFALELAKRLNLRIEFHGDQIKPE [I42P] is lower in “folding stability dG” value: 1.63 kcal/mol for the first, 1.27 kcal/mol for the second.

Going from KKVTINGVEIKFNNPEEAVKFALELAKRLNLRIEFHGDQIKTE [I42T] to KKVTINGVEIKFNNPEEAVKFALELAKRLNLRIEFHGDQIKGE [I42G], the “folding stability dG” value falls from 1.38 kcal/mol to 1.26 kcal/mol.

Going from KKVTINGVEIKFNNPEEAVKFALELAKRLNLRIEFHGDQIKRE [I42R] to KKVTINGVEIKFNNPEEAVKFALELAKRLNLRIEFHGDQIKQE [I42Q], the “folding stability dG” value falls from 1.44 kcal/mol to 1.24 kcal/mol.

Going from KKVTINGVEIKFNNPEEAVKFALELAKRLNLRIEFHGDQIKFE [I42F] to KKVTINGVEIKFNNPEEAVKFALELAKRLNLRIEFHGDQIKAE [I42A], the “folding stability dG” value falls from 2.22 kcal/mol to 1.29 kcal/mol.

Compared with KKVTINGVEIKFNNPEEAVKFALELAKRLNLRIEFHGDQIKME [I42M], KKVTINGVEIKFNNPEEAVKFALELAKRLNLRIEFHGDQIKKE [I42K] is lower in “folding stability dG” value: 2.25 kcal/mol for the first, 1.43 kcal/mol for the second.

Going from KKVTINGVEIKFNNPEEAVKFALELAKRLNLRIEFHGDQIKSE [I42S] to KKVTINGVEIKFNNPEEAVKFALELAKRLNLRIEFHGDQIKLE [I42L], the “folding stability dG” value rises from 1.47 kcal/mol to 3.07 kcal/mol.

First: KKVTINGVEIKFNNPEEAVKFALELAKRLNLRIEFHGDQIKWE [I42W]
Second: KKVTINGVEIKFNNPEEAVKFALELAKRLNLRIEFHGDQIHIE [K41H]
The “folding stability dG” value of the first is lower: 1.58 kcal/mol for the first, 2.49 kcal/mol for the second.

First: KKVTINGVEIKFNNPEEAVKFALELAKRLNLRIEFHGDQINIE [K41N]
Second: KKVTINGVEIKFNNPEEAVKFALELAKRLNLRIEFHGDQITIE [K41T]
The “folding stability dG” value of the first is lower: 2.52 kcal/mol for the first, 2.69 kcal/mol for the second.

First: KKVTINGVEIKFNNPEEAVKFALELAKRLNLRIEFHGDQIWIE [K41W]
Second: KKVTINGVEIKFNNPEEAVKFALELAKRLNLRIEFHGDQIFIE [K41F]
The “folding stability dG” value of the first is lower: 2.85 kcal/mol for the first, 3 kcal/mol for the second.

First: KKVTINGVEIKFNNPEEAVKFALELAKRLNLRIEFHGDQILIE [K41L]
Second: KKVTINGVEIKFNNPEEAVKFALELAKRLNLRIEFHGDQIIIE [K41I]
The “folding stability dG” value of the first is lower: 2.86 kcal/mol for the first, 3.21 kcal/mol for the second.

First: KKVTINGVEIKFNNPEEAVKFALELAKRLNLRIEFHGDQIVIE [K41V]
Second: KKVTINGVEIKFNNPEEAVKFALELAKRLNLRIEFHGDQIGIE [K41G]
The “folding stability dG” value of the first is higher: 3 kcal/mol for the first, 1.73 kcal/mol for the second.

First: KKVTINGVEIKFNNPEEAVKFALELAKRLNLRIEFHGDQIMIE [K41M]
Second: KKVTINGVEIKFNNPEEAVKFALELAKRLNLRIEFHGDQIYIE [K41Y]
The “folding stability dG” value of the first is lower: 2.71 kcal/mol for the first, 2.94 kcal/mol for the second.

Going from KKVTINGVEIKFNNPEEAVKFALELAKRLNLRIEFHGDQIAIE [K41A] to KKVTINGVEIKFNNPEEAVKFALELAKRLNLRIEFHGDQICIE [K41C], the “folding stability dG” value rises from 2.36 kcal/mol to 3.17 kcal/mol.

Compared with KKVTINGVEIKFNNPEEAVKFALELAKRLNLRIEFHGDQISIE [K41S], KKVTINGVEIKFNNPEEAVKFALELAKRLNLRIEFHGDQIDIE [K41D] is lower in “folding stability dG” value: 2.46 kcal/mol for the first, 1.91 kcal/mol for the second.

Compared with KKVTINGVEIKFNNPEEAVKFALELAKRLNLRIEFHGDQIEIE [K41E], KKVTINGVEIKFNNPEEAVKFALELAKRLNLRIEFHGDQIQIE [K41Q] is higher in “folding stability dG” value: 2.1 kcal/mol for the first, 2.27 kcal/mol for the second.

Compared with KKVTINGVEIKFNNPEEAVKFALELAKRLNLRIEFHGDQIPIE [K41P], KKVTINGVEIKFNNPEEAVKFALELAKRLNLRIEFHGDQIRIE [K41R] is higher in “folding stability dG” value: 1.3 kcal/mol for the first, 2.8 kcal/mol for the second.

Going from KKVTINGVEIKFNNPEEAVKFALELAKRLNLRIEFHGDQKKIE [I40K] to KKVTINGVEIKFNNPEEAVKFALELAKRLNLRIEFHGDQDKIE [I40D], the “folding stability dG” value falls from 1.5 kcal/mol to 1.39 kcal/mol.

With KKVTINGVEIKFNNPEEAVKFALELAKRLNLRIEFHGDQLKIE [I40L] the “folding stability dG” value was 2.1 kcal/mol.
